Article PMC8823281 (Biochemistry, 2021)

B1: monoclonal antibody 9C6 (antibody, V domains shown)
VH: EVMLVESGGGLVKPGGSLKISCAASGFTFSWYAMSWVRQTPEKRLEWVATISSAGSYTYYPDSVKGRFTISRDNAKNTLYLQMSSLRSEDTAMYYCSRVPILGRVDYWGQGTTLTVSS
VL: QIVLTQSPAIMSASPGEKVTMTCSASSSVTYMHWYQQKSGTSPKTWIYDSSRLASGVPARFSGSGSGTSYSLTISSMEAEDAATYYCQHWSSNPPIFTFGSGTKLEIK
B2: monoclonal antibody 8E11 (antibody, V domains shown)
VH: EVMLVESGGGLVKPGGSLKISCAASGFTFSWYAMSWVRQTPEKRLEWVATISSAGSYTYYPDSVKGRFTISRDNAKNTLYLQMSSLRSEDTAMYYCSRVPILGRVDYWGQGTTLTVSS
VL: QIVLTQSPAFMSASPGEKVTMTCSASSSVTYMNWYQQKSGTSPKTWIYDSSRLASGVPPRFSGSGSGTSYSLTISSMEAEDAATYYCQQWSSNPPIFTFGSGTKLEIK

Experiments:
Assay in all cases: immunostaining of cells or tissue
[1] = molecular target: plasma membrane-targeted version of rat VGLUT3 (Rattus norvegicus, UniProt Q7TSF2)
[2] = molecular target: plasma membrane-targeted version of rat VGLUT2 (Rattus norvegicus, UniProt Q9JI12, point mutant)
[3] = molecular target: plasma membrane-targeted version of rat VGLUT1 (Rattus norvegicus, UniProt Q62634)
plasma membrane-targeted version of rat VGLUT1, sequence (Q62634 whole entry): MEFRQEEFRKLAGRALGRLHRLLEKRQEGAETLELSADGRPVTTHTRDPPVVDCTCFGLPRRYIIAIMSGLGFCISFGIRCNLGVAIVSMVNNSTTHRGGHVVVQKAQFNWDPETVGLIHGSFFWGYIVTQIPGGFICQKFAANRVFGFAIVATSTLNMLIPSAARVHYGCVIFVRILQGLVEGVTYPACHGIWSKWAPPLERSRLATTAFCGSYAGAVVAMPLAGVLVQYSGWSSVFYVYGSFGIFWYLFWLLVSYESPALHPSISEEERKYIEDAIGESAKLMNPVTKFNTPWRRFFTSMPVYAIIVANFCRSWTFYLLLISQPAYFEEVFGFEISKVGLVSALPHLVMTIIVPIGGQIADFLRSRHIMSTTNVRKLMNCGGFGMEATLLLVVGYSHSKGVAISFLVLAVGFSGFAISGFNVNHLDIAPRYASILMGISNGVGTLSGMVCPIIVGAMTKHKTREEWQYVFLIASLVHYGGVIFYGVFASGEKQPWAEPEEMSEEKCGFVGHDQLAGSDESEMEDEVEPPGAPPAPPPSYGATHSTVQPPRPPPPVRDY

plasma membrane-targeted version of rat VGLUT3, sequence (Q7TSF2 whole entry): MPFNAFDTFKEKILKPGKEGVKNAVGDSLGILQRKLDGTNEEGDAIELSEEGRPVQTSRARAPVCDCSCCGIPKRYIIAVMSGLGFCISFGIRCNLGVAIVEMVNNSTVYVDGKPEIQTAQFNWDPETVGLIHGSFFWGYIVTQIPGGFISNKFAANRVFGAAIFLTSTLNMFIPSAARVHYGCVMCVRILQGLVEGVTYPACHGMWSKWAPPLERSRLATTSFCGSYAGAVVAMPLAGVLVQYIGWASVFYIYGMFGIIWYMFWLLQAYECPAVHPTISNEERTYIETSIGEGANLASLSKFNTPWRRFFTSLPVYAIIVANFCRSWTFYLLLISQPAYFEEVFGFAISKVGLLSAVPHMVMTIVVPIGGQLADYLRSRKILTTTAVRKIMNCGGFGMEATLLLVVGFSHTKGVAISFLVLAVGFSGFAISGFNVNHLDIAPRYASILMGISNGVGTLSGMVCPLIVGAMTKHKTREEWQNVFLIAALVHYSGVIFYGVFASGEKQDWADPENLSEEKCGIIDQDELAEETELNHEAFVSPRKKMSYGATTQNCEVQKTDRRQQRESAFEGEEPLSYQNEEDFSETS
plasma membrane-targeted version of rat VGLUT2, sequence (Q9JI12 whole entry, change not shown): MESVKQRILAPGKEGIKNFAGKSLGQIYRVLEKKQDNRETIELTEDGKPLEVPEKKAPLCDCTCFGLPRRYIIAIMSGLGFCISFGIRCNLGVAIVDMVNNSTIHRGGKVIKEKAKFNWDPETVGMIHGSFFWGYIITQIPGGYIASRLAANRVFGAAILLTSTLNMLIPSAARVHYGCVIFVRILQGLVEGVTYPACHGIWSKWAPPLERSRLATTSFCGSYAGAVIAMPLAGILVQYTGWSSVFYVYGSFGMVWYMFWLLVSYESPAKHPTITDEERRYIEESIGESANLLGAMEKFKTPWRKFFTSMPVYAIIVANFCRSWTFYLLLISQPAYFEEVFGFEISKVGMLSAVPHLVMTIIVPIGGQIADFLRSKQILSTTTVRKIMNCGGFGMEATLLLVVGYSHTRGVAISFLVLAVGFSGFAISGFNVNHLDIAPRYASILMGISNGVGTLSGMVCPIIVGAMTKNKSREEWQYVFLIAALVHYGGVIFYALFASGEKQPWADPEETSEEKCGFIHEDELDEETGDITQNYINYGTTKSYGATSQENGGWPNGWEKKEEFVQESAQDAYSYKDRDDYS

Binder	binding result [1]	binding result [2]	binding result [3]
B1	no binding	binds	binds
B2	no binding		binds
